Numbering of substitutions follows the chain as printed. Numbers in names are those of the source.
Key:
[1] = molecular target: T1, recombinant human VEGF165 (human, UniProt P15692 207-395); assay: cell-based or functional assay
[2] = molecular target: T2, recombinant human PDGF-BB (human, UniProt P01127 82-190); assay: cell-based or functional assay
[3] = molecular target: T1, recombinant human VEGF165; assay: competition ELISA: DVD-Ig titrated against biotinylated hVEGF165 binding to coated hVEGFR2-Fc
Protocol: To identify molecules that could block the binding of hVEGF₁₆₅ to the hVEGF-R2 (KDR/Flk-1) receptor, a competition ELISA was performed. […] Plates were then washed four times with wash buffer (TBS, 0.05% Tween-20) and blocked with Superblock blocking buffer (Thermo Scientific, cat#37535). […] The pre-incubated sample/hVEGF₁₆₅ complex was added to the coated plate at 50 μL in duplicate and incubated for 30 minutes at 25° C. with shaking. Following incubation, plates were washed four times with wash buffer. Streptavidin-polyHRP-40 (Fitzgerald cal#65r-s104phrp) was diluted in assay diluent (10% Superblock containing 0.05% surfactamps) and added to plates (50 μL) for 45 minutes at 25° C. with shaking. Plates were washed four times with wash buffer and developed with the addition of Enhanced K-blue TMB substrate (Neogen cat#308177). The reaction was stopped with 2N sulfuric acid (VWR, cat# BDH3500-1) and the absorbance was read at 450 nm-570 nm. A decrease in observed optical density indicates the test molecule is blocking the hVEGF₁₆₅ binding to the hVEGF-R2-Fc. Data was analyzed using Softmax Pro 4.8 software and IC₅₀ values calculated using a sigmoidal dose response (variable slope) fit in GraphPad Prism 5.

[4] = molecular target: T2, recombinant human PDGF-BB; assay: competition ELISA: DVD-Ig titrated against biotinylated hPDGF-BB binding to coated hPDGF-Rbeta-Fc
Protocol: (§1) Plates were then washed four times with wash buffer (TBS, 0.05% Tween-20) and blocked with Superblock blocking buffer (Thermo Scientific, cat#37535). During the blocking step, supernatants, antibodies, benchmark compounds or DVD-Ig were diluted in assay diluent (10% Superblock containing 0.05% surfactamps) and an eight point titration of each sample molecule was performed. […] Following incubation, plates were washed four times with wash buffer. Detection reagent Streptavidin-polyHRP-40 (Fitzgerald, cat#65r-s104phrp) was diluted in assay diluent and added to plates (50 μL) for 45 minutes at 25° C. with shaking. Plates were washed four times with wash buffer and developed with the addition of Enhanced K-blue TMB substrate (Neogen, cat#308177). The reaction was stopped with 2N sulfuric acid (VWR, cat# BDH3500-1) and the absorbance was read at 450 nm-570 nm. […] Data was analyzed using Softmax Pro 4.8 software and IC₅₀ values calculated using a sigmoidal dose response (variable slope) fit in GraphPad Prism 5.

Human PDGF-BB [5] = molecular target: T3, Human PDGF-BB (human, UniProt P01127 82-190); assay: Biacore SPR (Example 1.1)
T3 construct: Recombinant human PDGF-BB, a dimer of two B chains; also called huPDGF-BB; hPDGF-BB
Protocol: (§2) Unreacted moieties on the biosensor surface were blocked with ethanolamine. For kinetic analysis, rate equations derived from the 1:1 Langmuir binding model were fitted simultaneously to multiple antigen injections (using global fit analysis) with the use of Scrubber 2 (BioLogic Software), Biacore Biaevaluation 4.0.1 software or Biacore T100 Evaluation software. Purified antibodies or DVD-Ig molecules were diluted in running buffer for capture across goat anti-human Fc reaction surfaces. Antibodies or DVD-Ig molecules to be captured as a ligand (1 μg/ml) were injected over reaction matrices at a flow rate of 10 μl/minute. During the assay, all measurements were referenced against the capture surface alone (i.e., with no captured antibody or DVD-Ig molecule). […] The equilibrium dissociation constant KD (M) of the reaction between antibodies and the target antigen was then calculated from the kinetic rate constants by the following formula: KD=Koff/Kₒₙ. Binding was recorded as a function of time and kinetic rate constants were calculated. In this assay, on-rates as fast as 10⁶M⁻¹s⁻¹ and off-rates as slow as 10⁻⁶ s⁻¹ could be measured.

Human PDGF-BB [6] = molecular target: T3, Human PDGF-BB; assay: cell-based or functional assay
Human PDGF-BB [7] = molecular target: T3, Human PDGF-BB; assay: competition ELISA: huPDGF-BB-biotin binding to coated huPDGF-Rβ-Fc (Example 1.13)
Protocol: as §1

Human PDGF-BB [8] = molecular target: T3, Human PDGF-BB; assay: Biacore SPR (Example 1.1); footnote **: heterogeneous off-rate
Protocol: as §2

Human PDGF-BB [9] = molecular target: T3, Human PDGF-BB; assay: Biacore SPR (Example 1.1); first of two rows for this clone
Protocol: as §2

Human PDGF-BB [10] = molecular target: T3, Human PDGF-BB; assay: Biacore SPR (Example 1.1); second of two rows for this clone
Protocol: as §2

[11] = molecular target: T4, recombinant human VEGF-R2-Fc (R&D Systems cat#357-KD) (human, UniProt P35968 20-764); assay: direct binding ELISA on coated recombinant human VEGF-R2-Fc (Example 1.22)
T4 construct: Bought reagent; also called hVEGFR2-Fc; hVEGF-R2 (KDR/Flk-1); not shown: Fc part of the bought fusion protein
Protocol: Plates were then washed four times with wash buffer (TBS, 0.05% Tween-20) and blocked with Superblock blocking buffer (Thermo Scientific, cat#37535). […] Following incubation, plates were washed four times with wash buffer. […] Plates were washed four times with wash buffer and developed with the addition of Enhanced K-blue TMB substrate (Neogen cat#308177). The reaction was stopped with 2N sulfuric acid (VWR, cat# BDH3500-1) and the absorbance was read at 450 nm-570 nm. […] Data was analyzed using Softmax Pro 4.8 software and IC₅₀ values calculated using a sigmoidal dose response (variable slope) fit in GraphPad Prism 5.

T3 sequence (P01127 82-190 limits assumed): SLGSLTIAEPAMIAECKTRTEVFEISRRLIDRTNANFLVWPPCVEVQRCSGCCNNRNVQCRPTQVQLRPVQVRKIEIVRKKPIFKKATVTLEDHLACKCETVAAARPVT
T1 sequence (P15692 other isoform, or with tags, fused parts or gaps limits assumed): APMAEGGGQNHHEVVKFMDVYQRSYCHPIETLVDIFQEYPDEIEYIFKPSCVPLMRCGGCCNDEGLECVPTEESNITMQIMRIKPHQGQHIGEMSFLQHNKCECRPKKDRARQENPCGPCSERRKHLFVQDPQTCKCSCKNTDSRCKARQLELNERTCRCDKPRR
T4 sequence (P35968 20-764 limits assumed): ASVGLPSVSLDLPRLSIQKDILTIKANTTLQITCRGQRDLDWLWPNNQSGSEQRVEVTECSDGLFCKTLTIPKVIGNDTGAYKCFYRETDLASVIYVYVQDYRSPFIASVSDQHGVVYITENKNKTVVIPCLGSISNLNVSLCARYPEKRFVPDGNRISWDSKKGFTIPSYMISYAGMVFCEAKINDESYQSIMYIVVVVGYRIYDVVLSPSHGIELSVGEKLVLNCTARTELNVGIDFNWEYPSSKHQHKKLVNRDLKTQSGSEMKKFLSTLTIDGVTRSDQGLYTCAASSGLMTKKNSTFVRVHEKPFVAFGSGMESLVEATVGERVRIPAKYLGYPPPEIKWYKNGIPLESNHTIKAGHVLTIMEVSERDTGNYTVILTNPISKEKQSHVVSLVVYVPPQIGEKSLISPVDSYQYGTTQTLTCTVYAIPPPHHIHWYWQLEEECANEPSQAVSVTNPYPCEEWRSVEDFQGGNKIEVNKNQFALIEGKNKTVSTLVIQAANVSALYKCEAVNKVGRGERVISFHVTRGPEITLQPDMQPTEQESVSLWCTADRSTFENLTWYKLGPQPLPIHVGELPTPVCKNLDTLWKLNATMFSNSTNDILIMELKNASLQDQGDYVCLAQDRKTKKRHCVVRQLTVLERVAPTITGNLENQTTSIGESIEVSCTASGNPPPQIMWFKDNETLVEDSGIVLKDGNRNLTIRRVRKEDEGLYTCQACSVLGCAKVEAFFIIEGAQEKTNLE
T2 sequence (P01127 82-190 limits assumed): as the sequence (P01127 82-190 limits assumed) above

B1: 4G8.3-SL-9E8.4 (g) DVD-Ig (PR-1572105) (bispecific antibody, human IgG1, kappa, L234A L235A)
heavy: EVQLVQSGSELKKPGASVKVSCKASGYTFTNYGMYWVRQAPGQGLEWMGWINTETGKPTYADDFKGRFVFSLDTSVSTAYLQISSLKAEDTAVYYCARTNYYYRSYIFYFDYWGQGTMVTVSSASTKGPEVTLRESGPALVKPTQTLTLTCTFSGFSLSTYGMGVGWIRQPPGKALEWLANIWWDDDKYYNPSLKNRLTISKDTSKNQVVLTMTNMDPVDTATYYCARIESIGTTYSFDYWGQGTMVTVSSASTKGPSVFPLAPSSKSTSGGTAALGCLVKDYFPEPVTVSWNSGALTSGVHTFPAVLQSSGLYSLSSVVTVPSSSLGTQTYICNVNHKPSNTKVDKKVEPKSCDKTHTCPPCPAPEAAGGPSVFLFPPKPKDTLMISRTPEVTCVVVDVSHEDPEVKFNWYVDGVEVHNAKTKPREEQYNSTYRVVSVLTVLHQDWLNGKEYKCKVSNKALPAPIEKTISKAKGQPREPQVYTLPPSREEMTKNQVSLTCLVKGFYPSDIAVEWESNGQPENNYKTTPPVLDSDGSFFLYSKLTVDKSRWQQGNVFSCSVMHEALHNAYTQKSLSLSPGK
light: DTVLTQSPATLSLSPGERATLSCRASESVSTHMHWYQQKPGQAPRLLIYGASNLESGVPARFSGSGSGTDFTLTISSLEPEDFAVYFCQQSWNDPFTFGQGTKLEIKRTVAAPSVFIFPPEFVLTQSPGTLSLSPGERATLSCERSSGDIGDSYVSWYQQKPGQAPRLVIYADDQRPSGIPDRFSGSGSGTDFTLTISRLEPEDFAVYYCQSYDINIDIVFGGGTKVEIKRTVAAPSVFIFPPSDEQLKSGTASVVCLLNNFYPREAKVQWKVDNALQSGNSQESVTEQDSKDSTYSLSSTLTLSKADYEKHKVYACEVTHQGLSSPVTKSFNRGEC
notes: DVD-Ig, outer hBDB-4G8.3 (VEGF), inner hBDI-9E8.4 (PDGF); IgG1 L234A, L235A, H435A / kappa; also called DVD-Ig-3
[1]
  HMVEC-d hVEGF165 Potency IC50: 0.347 nM
[2]
  NIH-3T3 hPDGF-BB Potency IC50: 0.29 nM
[3]
  IC50: 0.111 nM
[4]
  IC50: > 5 nM

B2: BFU-3E2-B9-B8 (antibody, V domains shown)
VH: EVQLQQSGPELQRPGASVKLSCKASGYTFTESYMYWVKQRPEQSLELIGRIDPEDGSTDYVEKFKNKATLTADTSSNTAYMQLSSLTSEDSATYFCARFGARSYFYPMDAWGQGTSVTVSS
VL: DTVLTQPPALAVSPGERVSISCRASESVSTLMHWYQQKPGQQPRLLIYGASNLESGVPARFSGSGSGTDFTLTIDPVEADDTATYFCQQSWNDPWTFGGGTKLELK
Human PDGF-BB [5]
  Kd: ≤ 0.15 pM
  kon: ≥ 1e+07 M⁻¹ s⁻¹
Human PDGF-BB [6]
  Phospho-Tyr751/hPDGF-BB Neutralization: 0.642 nM
  huPDGF-BB Neutralization Potency (nM) in NIH-3T3 Cells: 0.247 nM
Human PDGF-BB [7]
  IC50: > 50 nM

B3: BFU-11A8-D6-C3 (antibody, V domains shown)
VH: B2 VH with M34I, S91T
VL: B2 VL with P7S, A9T, S21P
Human PDGF-BB [5]
  Kd: ≤ 0.047 pM
  kon: 2.1e+07 M⁻¹ s⁻¹
Human PDGF-BB [6]
  Phospho-Tyr751/hPDGF-BB Neutralization: 0.736 nM
  huPDGF-BB Neutralization Potency (nM) in NIH-3T3 Cells: 0.344 nM
Human PDGF-BB [7]
  IC50: 7.09 nM

B4: BDI-1E1-D5 (antibody, V domains shown)
VH: EVKLQQSGDELVRPGASVKMSCKASGYTFTDYVMHWVKQSPGQGLEWIGTIIPLIDTTSYNQKFKGKATLTADKSSNTAYMELSRLTSEDSAVYYCARTSPYYYSSYDVMDAWGQGASVTVSS
VL: NIQLTQSPSLLSASVGDRVTLSCKGSQNINNYLAWYQQKLGEAPKLLIYKTNNLQTGIPSRFSGCGSGTDYTLTISSLHSEDLATYYCYQYDNGYTFGAGTKLELK
Human PDGF-BB [5]
  kon: ≥ 1e+07 M⁻¹ s⁻¹
Human PDGF-BB [8]
  Kd: ≤ 0.037 nM

B5: BDI-6A3-A9 (antibody, V domains shown)
VH: EVQLVESGGGLVQPGRSLKFSCAASGFSFSDSAMAWVRQAPKKGLEWVATIIYDGSGTYYRDSVKGRFTISRDNAKSTLYLQMDSLRSEDTATYYCARLGFNYGNYGYYVMDAWGQGASVTVSS
VL: QFTLTQPKSVSGSLRNTITIPCERSSGDIGDSYVSWYQQHLGRPPINVIFADDQRPSEVSDRFSGSIDSSSNSASLTITNLQMDDEADYFCQSYDSNIDINIVFGGGTKLTVL
Human PDGF-BB [5]
  kon: ≥ 1e+07 M⁻¹ s⁻¹
Human PDGF-BB [8]
  Kd: ≤ 0.67 nM

B6: BDI-9E8-E7 (antibody, V domains shown)
VH: QVTLKESGPGILQPSQTLSLTCTFSGFSLSTYGMGVGWIRQPSGKGLEWLANIWWDDDKYYNPSLKNRLTISKDTSNNQAFLKITNVDTADTATYYCARIESIGTTYSFDYWGQGVMVTVSS
VL: QFTLTQPKSVSGSLRSTITIPCERSSGDIGDSYVSWYQQHLGRPPINVIYADDQRPSEVSDRFSGSIDSSSNSASLTITNLQMDDEADYFCQSYDINIDIVFGGGTKLTVL
Human PDGF-BB [9]
  Kd: ≤ 0.058 pM
  kon: ≥ 1.7e+07 M⁻¹ s⁻¹
Human PDGF-BB [10]
  Kd: ≤ 0.1 pM
  kon: ≥ 1e+07 M⁻¹ s⁻¹

B7: BCU-3D6-C9 (antibody, V domains shown)
VH: QIQLVQSGPELKKPGESVKISCKASEYTFTDYAIHWVKQAPGKGLKWMGWINTYTGKPTYADDFKGRFVFSLEASASTANLQISNLKNEDTATYFCARDYGGYGERRDYFDYWGQGVMVTVSS
VL: DIQMTQSPASLSASLGETVTIECRVSEDIYNGLAWYQQKPGKSPQFLIYNANRLHTGVPSRFSGSGSGTQFSLKINSLQSEDVANYFCQQYYDYPLTFGSATKLEIK
notes: Rat hybridoma anti-human VEGFR II monoclonal antibody
[11]
  binding result: binds

B8: BCU-7A6-C2 (antibody, V domains shown)
VH: EVQLVESGGGLVQPRGSLKLSCAASGFDFNSYGMSWVRQAPGKGLDLVADISSKSYNYATYYADSVKDRFTISRDDSQSMVYLQMDNLKTEDTALYYCTESLELGGAYWGQGTLVTVSS
VL: DIQMTQSPPSLSASLGDEVTITCQASQNINKFIAWYQQKPGKAPRLLIRYTSTLKSGTPSRFSGSGSGRDYSFSISNVESEDIASYYCLQYDSLPWTFGGGTKLELK
notes: Rat hybridoma anti-human VEGFR II monoclonal antibody, isotype IgG2b/κ
[11]
  binding result: binds
